This is an account of results in publication PMC3749939.

The experiment concerns the target Mutant H2A.Z^AP3-YFP (mouse). The experiment in a line: co-IP; immunoprecipitation with GFP antibodies of the YFP-tagged histone from dox-induced transgenic ESCs (endogenous H2A.Z knockdown background), immunoblot of the partners; uninduced cells (No DOX) as negative controls; densitometry in ImageJ. On the technique in general: Immunoblotting shows a protein as a band on a membrane.

B1: NAP1L1 (natural protein)
chain: MADIDNKEQSELDQDLEDVEEVEEEETGEETKIKARQLTVQMMQNPQILAALQERLDGLVDTPTGYIESLPKVVKRRVNALKNLQVKCAQIEAKFYEEVHDLERKYAVLYQPLFDKRFEIINAIYEPTEEECEWKPDEEDEVSEELKEKAKIEDEKKDEEKEDPKGIPEFWLTVFKNVDLLSDMVQEHDEPILKHLKDIKVKFSDAGQPMSFVLEFHFEPNDYFTNEVLTKTYRMRSEPDDSDPFSFDGPEIMGCTGCQIDWKKGKNVTLKTIKKKQKHKGRGTVRTVTKTVSNDSFFNFFAPPEVPENGDLDDDAEAILAADFEIGHFLRERIIPRSVLYFTGEAIEDDDDDYDEEGEEADEEGEEEGDEENDPDYDPKKDQNPAECKQQ
Regarding B1, the fold of NAP1L1 bound against H2A.Z^WT was less than 2 fold.
